Results published in PMC3669277, “Interactions between the R2R3-MYB Transcription Factor, AtMYB61, and Target DNA Binding Sites”.
Where a chain is given by its changes, count along the chain named. Names may count otherwise.

B1: ACCTAC (AC-I) (dsDNA)
DNA 1: ACATTGGGCGAGAAAAGCTGATCCCCACCTACCCGGGCTATCTCCCCCTCCTCCTCCGATCTG
DNA 2: CAGATCGGAGGAGGAGGGGGAGATAGCCCGGGTAGGTGGGGATCAGCTTTTCTCGCCCAATGT
B2: ACCAAT (dsDNA)
DNA 1: B1 DNA 1 with T30A, C32T
DNA 2: B1 DNA 2 with G32A, A34T
B3: ACCGAC (AC-I mutant, T4G) (dsDNA)
DNA 1: B1 DNA 1 with T30G
DNA 2: B1 DNA 2 with A34C
B4: ACCTGC (AC-I mutant, A5G) (dsDNA)
DNA 1: B1 DNA 1 with A31G
DNA 2: B1 DNA 2 with T33C
B5: ACCTAG (AC-I mutant, C6G) (dsDNA)
DNA 1: B1 DNA 1 with C32G
DNA 2: B1 DNA 2 with G32C
B6: NBS (non-binding site, GAGACC) (dsDNA)
DNA 1: B1 DNA 1 with A27G, C28A, C29G, T30A, A31C
DNA 2: B1 DNA 2 with T33G, A34T, G35C, G36T, T37C
B7: ACCAAA (dsDNA)
DNA 1: B1 DNA 1 with T30A, C32A
DNA 2: B1 DNA 2 with G32T, A34T
B8: ACCATA (dsDNA)
DNA 1: B1 DNA 1 with T30A, A31T, C32A
DNA 2: B1 DNA 2 with G32T, T33A, A34T
B9: ACCAAC (dsDNA)
DNA 1: B1 DNA 1 with T30A
DNA 2: B1 DNA 2 with A34T
B10: ACCACA (dsDNA)
DNA 1: B1 DNA 1 with T30A, A31C, C32A
DNA 2: B1 DNA 2 with G32T, T33G, A34T
B11: ACCACC (dsDNA)
DNA 1: B1 DNA 1 with T30A, A31C
DNA 2: B1 DNA 2 with T33G, A34T

Assays:
[1] = target: T1, AtMYB61 (Arabidopsis thaliana, UniProt Q8VZQ2 1-366); assay: filter binding; Buffer, salt, pH and temperature not stated (filter binding per Hall and Kranz; EMSA per earlier work); filter binding with 1065 nM probe (124.41 ng, 60 bp) in; settings: protein: recombinant; tags: pET15b (NdeI/BamHI) fusion
T1 sequence (Q8VZQ2 whole entry, the tested form may be a part): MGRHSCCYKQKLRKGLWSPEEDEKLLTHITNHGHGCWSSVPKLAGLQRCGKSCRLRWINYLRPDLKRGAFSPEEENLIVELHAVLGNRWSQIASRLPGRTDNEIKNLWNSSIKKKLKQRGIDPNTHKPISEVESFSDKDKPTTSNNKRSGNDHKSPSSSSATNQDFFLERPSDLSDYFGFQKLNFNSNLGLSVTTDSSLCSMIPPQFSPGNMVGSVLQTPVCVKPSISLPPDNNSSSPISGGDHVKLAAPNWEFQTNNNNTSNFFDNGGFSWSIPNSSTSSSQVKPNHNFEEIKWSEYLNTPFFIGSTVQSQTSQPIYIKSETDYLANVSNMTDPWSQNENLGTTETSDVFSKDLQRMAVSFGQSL

[2] = target: T1, AtMYB61; assay: EMSA; 5E-08 M protein; Buffer, salt, pH and temperature not stated (filter binding per Hall and Kranz; EMSA per earlier work); filter binding with 1065 nM probe (124.41 ng, 60 bp) in; settings: protein: recombinant; tags: pET15b (NdeI/BamHI) fusion

Row | Binder | Kd [1] [nM] | binding result [2]
1 | B1 | 9.12 | –
2 | B2 | 12.1 | –
3 | B3 | 719 | –
4 | B4 | 79.7 | –
5 | B5 | 56 | –
6 | B6 | – | no binding
7 | B7 | 16.8 | –
8 | B8 | 18.3 | –
9 | B9 | 73.7 | –
10 | B10 | 80.8 | –
11 | B11 | 690 | –
